Test results published in patent publication US20060147914A1 (Johns Hopkins, published 2006).

Biological target: T1, native mGluR5 in detergent extracts of rat hippocampus (rat, UniProt P31424 21-1203, limits assumed)
T1 construct: Native protein in tissue lysate
Assay: in vitro binding assay with detergent extracts of hippocampus
Protocol: 40 ml of beads were then incubated with lysate from one hippocampus for one hour at 4° C., washed three times with PBS, and bound mGluR5 was eluted by boiling in 3× loading buffer.

T1 sequence (P31424 21-1203 limits assumed): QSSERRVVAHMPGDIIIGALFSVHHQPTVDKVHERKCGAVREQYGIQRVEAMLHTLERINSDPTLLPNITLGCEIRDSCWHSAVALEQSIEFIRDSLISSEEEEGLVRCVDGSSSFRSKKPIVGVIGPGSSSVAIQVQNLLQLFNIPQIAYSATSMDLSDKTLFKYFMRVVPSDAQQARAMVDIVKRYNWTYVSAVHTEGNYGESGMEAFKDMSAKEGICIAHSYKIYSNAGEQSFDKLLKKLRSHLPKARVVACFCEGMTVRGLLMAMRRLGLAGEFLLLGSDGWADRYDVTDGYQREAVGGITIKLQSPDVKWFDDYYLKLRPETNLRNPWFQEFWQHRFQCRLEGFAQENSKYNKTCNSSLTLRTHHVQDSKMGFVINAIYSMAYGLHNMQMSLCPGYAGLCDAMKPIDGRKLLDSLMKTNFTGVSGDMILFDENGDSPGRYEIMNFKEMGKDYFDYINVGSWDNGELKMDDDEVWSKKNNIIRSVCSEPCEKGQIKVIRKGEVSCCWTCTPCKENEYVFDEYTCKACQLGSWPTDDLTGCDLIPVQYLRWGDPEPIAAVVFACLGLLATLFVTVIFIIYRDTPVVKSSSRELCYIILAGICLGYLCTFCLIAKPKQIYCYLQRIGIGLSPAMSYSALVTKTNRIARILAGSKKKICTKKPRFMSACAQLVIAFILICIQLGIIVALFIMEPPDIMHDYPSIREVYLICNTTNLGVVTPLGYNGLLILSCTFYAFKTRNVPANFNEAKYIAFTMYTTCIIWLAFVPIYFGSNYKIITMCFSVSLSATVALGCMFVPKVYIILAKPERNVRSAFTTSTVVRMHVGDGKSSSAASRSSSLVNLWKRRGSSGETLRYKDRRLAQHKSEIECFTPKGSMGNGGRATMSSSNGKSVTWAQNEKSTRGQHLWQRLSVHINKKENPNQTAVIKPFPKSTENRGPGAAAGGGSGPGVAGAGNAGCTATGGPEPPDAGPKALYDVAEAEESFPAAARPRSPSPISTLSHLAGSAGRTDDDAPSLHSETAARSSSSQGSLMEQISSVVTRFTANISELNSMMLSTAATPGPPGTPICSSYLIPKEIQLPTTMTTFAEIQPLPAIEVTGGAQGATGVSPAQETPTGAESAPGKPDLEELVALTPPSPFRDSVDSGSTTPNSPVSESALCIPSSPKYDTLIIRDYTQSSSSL

B1: GST-Homer fusion protein (rat Homer) used with hippocampal extracts (other)
chain: GEQPIFSTRAHVFQIDPNTKKNWVPTSKHAVTVSYFYDSTRNVYRIISLDGSKAIINSTITPNMTFTKTSQKFGQWADSRANTVYGLGFSSEHHLSKFAEKFQEFKEAARLAKEKSQEKMELTSTPSQESAGGDLQSPLTPESINGTDDERTPDVTQNSEPRAEPAQNALPFSHRYTFNSAIMIK
notes: also called Homer GST fusion protein; Homer GST-fusion protein; not shown: glutathione S-transferase (GST) fusion partner, bacterially expressed
binding result: binds
